Experimental data published in patent US11680267B2, “Co-regulatory sequences based on tetracycline and Cumate” (Shenzhen Eureka Biotechnology Co., Ltd., priority 2020, dated 2023).

System: 293T(T&C)-TRE3GCuO-Luc cells and 293T(T&C)-TRE3GCuO-BGI-Luc cells
Assay: Luciferase assay in stable cell lines under different combinations of DOX and Cumate (Example 5)
Assay type: cell-based
Details: for induced transcription activity: 24 hours, stable cell line
Source text: In this Example, stable cell lines, under complex regulation of Tet-ON and Cumate, TRE3GCuO or TRE3GCuO-intron, and with Luciferase as the reporter gene, were constructed. Then, based on these cell lines, induced transcription activities of the reporter gene under the following 4 induction conditions were detected: without inducer, Cumate only, DOX only or both DOX and Cumate inducers. In this Example, the Luciferase reporter gene was taken as an example, and in principle, the method of the present disclosure was not affected by the nucleic acid fragment of interest. The specific experimental methods were as follows:
293T cells were seeded at 1.5E+06 cells per 60 mm culture dish, and cultured in DMEM (Sigam, D6429) complete medium supplemented with 10% FBS (ExCell, 11H116) at 37° C. and 5% CO 2. After 24 hours of culture, transfection was carried out according to the PEI method. During transfection, 500 μL of transfection reagent which contained 5.5 ug of total plasmid was added to each 60 mm culture dish, and the mass ratio of total plasmid to PEI MAX (Polysciences, 24765-1) was 1:4; and thereby 3 Luciferase stable cell lines were constructed. The transfection plasmids were transfected at the 19BF075:19BF229:18BF019 molar ratio of 5:5:1 to obtain 293T(T&C)-CMV-BGI-Luc cells; the transfection plasmids were transfected at the 19BF075:19BF235:18BF019 molar ratio of 5:5:1 to obtain 293T(T&C)-TRE3GCuO-Luc cells; the transfection plasmids were transfected at the 19BF075:19BF237:18BF019 molar ratio of 5:5:1 to obtain 293T(T&C)-TRE3GCuO-BGI-Luc cells. The plasmid and PEI MAX were mixed uniformly, and then put into a culture dish after standing for 15 minutes. 3 hours after transfection, the medium was changed to a complete DMEM medium, and the transfection operation was completed. After 24 hours of transfection, the cells were digested with trypsin and all seeded in a 100 mm culture dish (Corning, 430167), and 200 μg/ml of hygromycin (Sangon Biotech A600230-0001) drug screening was performed for at least three passages. After the growth of cells under the pressure of drug screening was consistent with that of the original 293T cells, the above 3 cells were diluted to 1 cell per well by a limiting dilution method and seeded in a 96-well plate; when the cells grew to about 50% of the bottom area of the well, the wells with strong EGFP green fluorescence intensity and uniform luminescence were selected under the fluorescence microscope, and 3 independent clones of each cell were selected for the following experiments.
For the above 3 cells, 3 independent clones for each cell were seeded into a 96-well plate (Corning 3916) at 2.5E+04 cells per well, with 8 wells per clone, and the medium was 100 microliters of DMEM complete medium. After 24 hours of culture, the medium was replaced and the following reagents were added into the duplicate wells of the 8 wells for each cell: (1) the same amount of medium, (2) Cumate at a final concentration of 200 ug/ml, (3) DOX at a final concentration of 1 ug/ml, or (4) DOX at a final concentration of 1 ug/ml and Cumate at a final concentration of 200 ug/ml. After 24 hours of further culture, relative light unit RLU of each well was detected using a Steady-Glo® Luciferase Assay System (Promega, E2610) kit according to the instruction (Promega, FB037), wherein the detection instrument was a fluorescence microplate reader (Perkin Elmer Victor V).

B1: TRE3GCuO: Tet-On (7xTetO of TRE3G) and Cumate complex response element, CuO 50 bp behind the TATA box (SEQ ID NO: 23) (nucleic acid)
DNA: TCCCTATCAGTGATAGAGAACGTATGAAGAGTTTACTCCCTATCAGTGATAGAGAACGTATGCAGACTTTACTCCCTATCAGTGATAGAGAACGTATAAGGAGTTTACTCCCTATCAGTGATAGAGAACGTATGACCAGTTTACTCCCTATCAGTGATAGAGAACGTATCTACAGTTTACTCCCTATCAGTGATAGAGAACGTATATCCAGTTTACTCCCTATCAGTGATAGAGAACGTATTAGGCGTGTACGGTGGGCGCCTATAAAAGCAGAGCTCGTTTAGTGAACCGTCAGATCGCCTGGAGCAATTCCACATACAAACAGACCAGATTGTCTGTTTGTT
modifications: TRE3GCuO50 response element sequence
induced transcription activity (adding both DOX 1 ug/ml and Cumate 200 ug/ml): 7.54E+06 RLU | induced transcription activity relative to no induction (adding both DOX and Cumate): 2381.05 times | induced transcription activity relative to only adding Cumate (adding both DOX and Cumate): 552.99 times | induced transcription activity relative to only adding DOX (adding both DOX and Cumate): 35.19 times | maximum induced transcription activity as % of that of CMV promoter (both DOX and Cumate inducers added): 47.84% | induced transcription activity relative to no induction (only adding Cumate): 4.31 times | induced transcription activity (only adding Cumate 200 ug/ml): 1.36E+04 RLU | induced transcription activity relative to no induction (only adding DOX): 67.66 times | induced transcription activity relative to only adding Cumate (only adding DOX): 15.71 times | induced transcription activity (only adding DOX 1 ug/ml): 2.14E+05 RLU
